According to article PMC3576407, “N332-Directed Broadly Neutralizing Antibodies Use Diverse Modes of HIV-1 Recognition: Inferences from Heavy-Light Chain Complementation of Function” (PLoS ONE, 2013):

B1: PGT128 (wild-type IgG, PGT128 heavy chain with PGT128 light chain) (antibody, V domains shown)
VH: QPQLQESGPTLVEASETLSLTCAVSGDSTAACNSFWGWVRQPPGKGLEWVGSLSHCASYWNRGWTYHNPSLKSRLTLALDTPKNLVFLKLNSVTAADTATYYCARFGGEVLRYTDWPKPAWVDLWGRGTLVTVSS
VL: QSALTQPPSASGSPGQSITISCTGTSNNFVSWYQQHAGKAPKLVIYDVNKRPSGVPDRFSGSKSGNTASLTVSGLQTDDEAVYYCGSLVGNWDVIFGGGTKLTVL
notes: PGT128 heavy chain; PGT128 light chain; also called PGT128-H/PGT128-L; source: HEK 293T cells (methods; the results say 293F), transient transfection in 96-well microplates, supernatant used directly
B2: PGT121 (wild-type IgG, PGT121 heavy chain with PGT121 light chain) (antibody, V domains shown)
VH: QMQLQESGPGLVKPSETLSLTCSVSGASISDSYWSWIRRSPGKGLEWIGYVHKSGDTNYSPSLKSRVNLSLDTSKNQVSLSLVAATAADSGKYYCARTLHGRRIYGIVAFNEWFTYFYMDVWGNGTQVTVSS
VL: DISVAPGETARISCGEKSLGSRAVQWYQHRAGQAPSLIIYNNQDRPSGIPERFSGSPDSPFGTTATLTITSVEAGDEADYYCHIWDSRVPTKWVFGGGTTLTVL
notes: PGT121 heavy chain; PGT121 light chain; also called PGT121-H/PGT121-L; source: HEK 293T cells (methods; the results say 293F), transient transfection in 96-well microplates, supernatant used directly

Assays:
Assay in all cases: ELISA; 200 ng gp120 coated on Maxisorb 96-well plates in PBS overnight at 4°C; blocked with PBS 5% dry milk; 25–50 µl antibody supernatant 1 h at RT; HRP goat anti-human IgG (H+L); TMB, OD450; absorbance normalised by the expression titer
Conditions in all cases: one partner purified
[1] = molecular target: T1, HIV-1 YU2 gp120 monomeric protein (HIV-1 clade B, primary isolate YU2, UniProt P35961)
T1 construct: gp120 envelope glycoprotein (the gp120 product of Env gp160) of HIV-1 primary isolate YU2, full-length gp120, monomeric

[2] = molecular target: T2, HIV-1 CAAN gp120 monomeric protein (HIV-1 subtype B, isolate CAAN …, UniProt Q5G5U4, strain)
T2 construct: gp120 envelope glycoprotein (the gp120 product of Env gp160) of HIV-1 primary isolate CAAN, full-length gp120, monomeric

[3] = molecular target: T3, HIV-1 BaL gp120 monomeric protein (HIV-1 subtype B, isolate BaL (clone not …, UniProt Q2MKA8, strain))
T3 construct: gp120 envelope glycoprotein (the gp120 product of Env gp160) of HIV-1 primary isolate BaL, full-length gp120, monomeric

Row | Binder | binding result [1] | binding result [2] | binding result [3]
1 | B1 | binds | binds | –
2 | B2 | – | binds | binds
